Reference: paper PMC6186785, “Discovery of Bacterial Deaminases That Convert 5-Fluoroisocytosine Into 5-Fluorouracil” (Frontiers in Microbiology, 2018)

Experiments:
Experiment in all cases: purified protein
[1] = substrate: Nc1nccc(O)n1; conditions: 50 mM Tris-HCl pH 8.0, 21 °C, substrate range 5–700 μM
[2] = substrate: Nc1ncc(F)c(=O)[nH]1; format: biochemical, uncultured Pseudomonas sp.; conditions: 50 mM Tris-HCl pH 8.0, 21 °C, sentence prints 'isocytosine', evident slip for 5-fluoroisocytosine (second URA3 set, after Vcz 5-fluoroisocytosine)
[3] = substrate: Nc1ncc(F)c(=O)[nH]1; format: biochemical, uncultured Hafnia sp.; conditions: 50 mM Tris-HCl pH 8.0, 21 °C

Protein	Km [1]	kcat [1]	Km [2]	kcat [2]	Km [3]	kcat [3]
URA3 deaminase (uncultured Pseudomonas sp.) (protein, full-length ORF, C-terminal 6xHis (pET21b NdeI/XhoI), E. coli BL21(DE3); primers encode N-terminus MAKTLL and C-terminus VMGE before LE-tag) MAKTLLVKNAELLVTMDGQRREIRQGGMFIEDNRIVQVGPAAELPQTADEVLDLKGKVVIPGLVNTHHHMYQSLTRVVPAAQDGELFNWLTNLYPIWARLTPEMIQVSTQTAMAELILSGCTTSSDHLYIYPNGCKLDDSIHAAGEIGMRFHAARGSMSVGRSQGGLPPDSVVEKEADILKESQRLIEDYHDAAHGSMLRVVVAPCSPFSVSRDLMREAAVLARNYGVSLHTHLAENVNDIAYSREKFGMTPAEYAEDLGWVGHDVWHAHCVQLDEHGIELFARTGTGVAHCPCSNMRLASGIAPVRRMRDAGVPVGLGVDGSASNDGASMIGEVRQALLLQRVGFGPDAMTAREALEIATLGGAKVLNRDDIGALAPGMVADFVAFDLNHIAYAGALHDPLAALVFCTPTHVSTSVINGKVVVRDGQLVTVDLPRVLERHNQLARQLVMGE	1085 ± 120 µM	2.00 ± 0.15 s⁻¹	1330 ± 305 µM	0.02 ± 0.003 s⁻¹	–	–
Vcz deaminase (uncultured Hafnia sp.; H2D) (protein, full-length ORF, C-terminal 6xHis (pET28a NcoI/XhoI), E. coli BL21(DE3); primers encode N-terminus MDKRTL and C-terminus NRHRL before LE-tag) MDKRTLLFKNAELLVTMDDERREIRGGCLLVEGNRIVAVGGDELCAAPADEEIDLRGHIVIPGLINTHHHMFQSLTRVIPDAQDGELFDWLNNLYPIWAGLTPEMIRISTQTAMAELMLSGCTTSSDHLYVYPNGCRLDDSIDGAREIGMRFHACRGSMSVGRSKGGLPPDELVENEQAILEDSLRLIHSYHDAQRYSMLRIALAPCSPFSVSRELMVKTAQMAREQGVSLHTHLAENDSDVSYSQTHFGMTPAQYAEDLGWVGSDVWHAHCVKLDRAGISLFARTGTGVAHCPCSNMRLASGIAPIRAMLDEGVSVGLGVDGSASNDAGNMIAETRQAMLLQRVGFGPDAMNARQALEIATRGGAKVLNRDDIGYLATGMAADFVAFDLNTLNLAGAKHDPLAALVFCTPGNVAFSVINGQVVIREGVLQTIDLPSVVQQHNRLACLLVNRHRL	1860 ± 45 µM	1.64 ± 0.06 s⁻¹	–	–	1270 ± 128 µM	0.1 ± 0.007 s⁻¹
